US8383386

T1: factor Va, P12259
T1 chain 1: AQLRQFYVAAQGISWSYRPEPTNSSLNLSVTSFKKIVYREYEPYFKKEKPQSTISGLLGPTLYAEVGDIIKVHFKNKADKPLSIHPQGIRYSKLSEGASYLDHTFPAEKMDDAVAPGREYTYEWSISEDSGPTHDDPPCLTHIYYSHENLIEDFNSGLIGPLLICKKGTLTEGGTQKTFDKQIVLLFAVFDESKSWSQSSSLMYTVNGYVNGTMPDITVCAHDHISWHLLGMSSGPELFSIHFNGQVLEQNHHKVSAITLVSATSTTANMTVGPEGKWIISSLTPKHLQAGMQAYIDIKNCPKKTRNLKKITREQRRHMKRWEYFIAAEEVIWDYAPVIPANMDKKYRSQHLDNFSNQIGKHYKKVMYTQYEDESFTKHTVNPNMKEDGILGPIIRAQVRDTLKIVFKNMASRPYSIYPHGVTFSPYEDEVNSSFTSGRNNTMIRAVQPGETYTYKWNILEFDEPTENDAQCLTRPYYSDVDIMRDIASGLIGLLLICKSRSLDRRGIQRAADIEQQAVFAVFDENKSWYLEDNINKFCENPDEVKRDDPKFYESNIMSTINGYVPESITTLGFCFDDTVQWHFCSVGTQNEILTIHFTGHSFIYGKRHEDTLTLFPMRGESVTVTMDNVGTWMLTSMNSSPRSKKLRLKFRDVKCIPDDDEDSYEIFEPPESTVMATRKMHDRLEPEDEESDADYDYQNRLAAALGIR
T1 chain 2: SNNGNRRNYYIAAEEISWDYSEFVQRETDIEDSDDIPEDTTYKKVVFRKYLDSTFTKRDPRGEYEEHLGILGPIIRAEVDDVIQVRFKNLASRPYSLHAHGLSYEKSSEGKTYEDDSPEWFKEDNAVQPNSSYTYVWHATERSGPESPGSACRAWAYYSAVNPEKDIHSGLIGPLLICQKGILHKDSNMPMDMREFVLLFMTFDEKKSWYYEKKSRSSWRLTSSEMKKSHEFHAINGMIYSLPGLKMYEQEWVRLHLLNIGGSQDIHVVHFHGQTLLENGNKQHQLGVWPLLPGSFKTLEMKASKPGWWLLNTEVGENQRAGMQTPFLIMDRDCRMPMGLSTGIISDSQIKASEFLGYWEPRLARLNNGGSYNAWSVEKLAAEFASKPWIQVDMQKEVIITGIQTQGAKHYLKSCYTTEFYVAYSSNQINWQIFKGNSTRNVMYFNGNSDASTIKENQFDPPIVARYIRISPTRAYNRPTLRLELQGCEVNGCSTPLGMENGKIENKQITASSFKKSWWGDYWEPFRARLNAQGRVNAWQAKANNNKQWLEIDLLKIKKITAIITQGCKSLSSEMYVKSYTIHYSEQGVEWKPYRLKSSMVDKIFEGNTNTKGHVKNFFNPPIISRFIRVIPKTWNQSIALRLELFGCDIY

B1: recombinant factor Xa variant Val17→Ala (protein)
chain 1: ANSFLEEMKKGHLERECMEETCSYEEAREVFEDSDKTNEFWNKYKDGDQCETSPCQNQGKCKDGLGEYTCTCLEGFEGKNCELFTRKLCSLDNGDCDQFCHEEQNSVVCSCARGYTLADNGKACIPTGPYPCGKQTLER
chain 2: IAGGQECKDGECPWQALLINEENEGFCGGTILSEFYILTAAHCLYQAKRFKVRVGDRNTEQEEGGEAVHEVEVVIKHNRFTKETYDFDIAVLRLKTPITFRMNVAPACLPERDWAESTLMTQKTGIVSGFGRTHEKGRQSTRLKMLEVPYVDRNSCKLSSSFIITQNMFCAGYDTKQEDACQGDSGGPHVTRFKDTYFVTGIVSWGEGCARKGKYGIYTKVTAFLKWIDRSMKTRGLPKAKSHAPEVITSSPLK

Assays:
factor Va = factor Va (UniProt P12259)
factor Va, P12259 = molecular target: T1, factor Va, P12259

Molecule | Km for peptidyl substrates after assembly into prothrombinase (factor Va) | Km for peptidyl substrates after assembly into prothrombinase (factor Va, P12259)
recombinant factor Xa variant Ile16→Gly | even the Km value for I235G was almost completely restored (3-fold increased compared to wild-type FXa) when assembled in prothrombinase | 
B1 |  | the assembly of FXaI235L and FXaV236A into prothrombinase almost completely restored the Km for peptidyl substrates
